Source: US20240352439, “POLYPEPTIDES AND METHODS FOR MODIFYING NUCLEIC ACIDS” (THE UNIVERSITY OF CHICAGO, published 2024)

Tests used:
Experiment in all cases: kapp, same conditions
[1] = target: TadA8e (Escherichia coli); settings: tags: MBP removed by TEV; label: 5'-FAM
From the text: (§1) We compared adenine deamination efficiency of TadA8r in ssDNA with TadA8.20 and TadA8e. Maltose binding protein (MBP) fused TadA8r, TadA8.20, and TadA8e were purified through immobilized metal affinity chromatography. A Tobacco Etch Virus (TEV) protease cutting site was installed between MBP and TadA*. After TEV proteinase treatment, TadA8r, TadA8.20, and TadA8e were purified by immobilized metal affinity chromatography, ion-exchange chromatography, and size-exclusion chromatography. DNA deamination assays were carried out using […] ssDNA oligos under single-turnover conditions. A-to-I conversion was measured to determine the apparent first-order deamination rate constant (kₐₚₚ) (FIG. 2a). Both TadA8.20 and TadA8e preferred TA over GA (kₐₚₚ=0.07 min⁻¹ and 0.08 min⁻¹ for TadA 8.20 on GA and TA probes, respectively; kₐₚₚ=0.01 min⁻¹ and 0.02 min⁻¹ for TadA8e on GA and TA probes, respectively). The kₐₚₚ for TadA8r is much higher—0.55 min⁻¹ on the GA probe and 0.39 min⁻¹, on the TA probe).
(§2) The single turnover DNA deamination reactions containing 4 uM TadA variants in deamination buffer (50 mM Tris, 25 mM KCl, 2.5 mM MgCl₂, 2 mM dithiothreitol, and 10% (v/v) glycerol; pH 7.5) and 5′ Fluorescein labeled ssDNA (IDT) (Supplementary Table 6) to a final concentration of 200 nM. All reactions were incubated at 37° C. At various time points (0, 1, 5, 10, 20, 60, 180 mins), 10 uL reaction mixture were aliquoted and quenched by adding 10 ul of hot water and incubating at 95° C. for 10 min. Reaction mixtures were supplied with 100 ug/ml Proteinase K (Fisher scientific) and incubated at 55° C. for 3 h followed by inactivating at 85° C. for 30 mins and 95° C. for 15 mins. To detected adenosine deamination, reaction mixture was incubated with 10 unit of E. coli EndonucleaseV in 1×NEB4 buffer at 37° C. for 1 h. After cleavage by EndoV, samples were mixed with 2-fold PAGE gel loading buffer (95% formamide, 10 mM EDTA, 0.025% SDS), heated at 95° C. for 5 min, resolved on 15% (v/v) denaturing polyacrylamide gel. Uncleavage substrate and cleavage product were visualized by ChemiDoc XRS+(Bio-rad) under fluorescein channel. DNA band quantification were analyzed using ImageJ Software. Curve fitting was done in GraphPad.

[2] = target: TadA8.20 (Escherichia coli, UniProt P68398 SEQ:1-167); settings: tags: MBP removed by TEV; label: 5'-FAM
From the text: as §1, §2

[3] = target: TadA8r (TadA-RA5.2) (Escherichia coli); settings: tags: 6xHis-MBP removed by TEV; label: 5'-FAM
From the text: as §1, §2

Row | Binder | activity [1] | activity [2] | activity [3]
1 | TGGGTTGGTGATCGTTTGGTGG (ssDNA) [GA probe] | 0.01 min⁻¹ | 0.07 min⁻¹ | –
2 | TGGGTTGGTTATCGTTTGGTGG (ssDNA) [TA probe] | 0.02 min⁻¹ | 0.08 min⁻¹ | 0.39 min⁻¹
